Data from patent publication US20110223615A1.

Key:
Experiment in all cases: cell-based or functional assay
[1] = target: JRFL (envelope of the HIV-1 pseudovirus) (HIV-1)
[2] = target: SVPB12 (envelope of the HIV-1 pseudovirus) (HIV-1)
[3] = target: ADA (envelope of the HIV-1 pseudovirus) (HIV-1)
[4] = target: HIV2 (envelope of the indicator virus, without sCD4) (HIV-2)
[5] = target: SF162 (envelope of the HIV-1 pseudovirus) (HIV-1)
[6] = target: BaL.01 (envelope of the HIV-1 pseudovirus) (HIV-1)
[7] = target: SVPB14 (envelope of the HIV-1 pseudovirus) (HIV-1)
[8] = target: SVPB17 (envelope of the HIV-1 pseudovirus) (HIV-1)
[9] = target: SVPB16 (envelope of the HIV-1 pseudovirus) (HIV-1)
[10] = target: MuLV (envelope of the control pseudovirus) (MuLV)
[11] = target: SVPB5 (envelope of the HIV-1 pseudovirus) (HIV-1)

Substance	IC50 (ug/ml) neutralization [1]	IC50 (ug/ml) neutralization [2]	IC50 (ug/ml) neutralization [3]	IC50 (ug/ml) neutralization [4]	IC50 (ug/ml) neutralization [5]	IC50 (ug/ml) neutralization [6]	IC50 (ug/ml) neutralization [7]	IC50 (ug/ml) neutralization [8]	IC50 (ug/ml) neutralization [9]	IC50 (ug/ml) neutralization [10]	IC50 (ug/ml) neutralization [11]
E51 (antibody)	> 30 µg/mL	> 30 µg/mL	> 30 µg/mL	> 30 µg/mL	45 µg/mL	> 30 µg/mL	> 30 µg/mL	> 30 µg/mL	> 30 µg/mL	> 30 µg/mL	> 30 µg/mL
broadly neutralizing mAb 2G12 (antibody)	0.3 µg/mL	0.3 µg/mL	12 µg/mL	> 25 µg/mL	0.5 µg/mL	1 µg/mL	> 25 µg/mL	> 25 µg/mL	> 25 µg/mL	> 25 µg/mL	8 µg/mL
HIV-1 CD4i mAb 17b (antibody)	> 30 µg/mL	> 30 µg/mL	> 30 µg/mL	10 µg/mL	30 µg/mL	> 30 µg/mL	> 30 µg/mL	> 30 µg/mL	> 30 µg/mL	> 30 µg/mL	> 30 µg/mL
HIV-1 CD4i mAb 19e (antibody)	> 30 µg/mL	> 30 µg/mL	> 30 µg/mL	> 30 µg/mL	> 30 µg/mL	> 30 µg/mL	> 30 µg/mL	> 30 µg/mL	> 30 µg/mL	> 30 µg/mL	> 30 µg/mL
CD4bs mAb b12 (antibody)	< 0.1 µg/mL	> 30 µg/mL	1.2 µg/mL	> 30 µg/mL	< 0.1 µg/mL	0.2 µg/mL	0.3 µg/mL	> 30 µg/mL	12 µg/mL	> 30 µg/mL	18 µg/mL
